Assay results reported in PMC10115800, “Two assembly modes for SIN3 histone deacetylase complexes” (Cell Discovery, 2023).

T1: Pst2 with C-terminal 3× Flag-tag (S. pombe, UniProt O13919 1-1075)
T1 construct: Pst2, Sin3 homolog of S. pombe, organising subunit of the SIN3S complex; all five domains (PAH1/2/3, HID, HCR) are resolved; also called Pst2-Flag; Sin3 isoform Pst2; source: endogenous locus tagged, S. pombe; purified (ANTI-FLAG M2 resin, glycerol gradient); not shown: 3× Flag, C-terminal, kept
T1 sequence (looked up): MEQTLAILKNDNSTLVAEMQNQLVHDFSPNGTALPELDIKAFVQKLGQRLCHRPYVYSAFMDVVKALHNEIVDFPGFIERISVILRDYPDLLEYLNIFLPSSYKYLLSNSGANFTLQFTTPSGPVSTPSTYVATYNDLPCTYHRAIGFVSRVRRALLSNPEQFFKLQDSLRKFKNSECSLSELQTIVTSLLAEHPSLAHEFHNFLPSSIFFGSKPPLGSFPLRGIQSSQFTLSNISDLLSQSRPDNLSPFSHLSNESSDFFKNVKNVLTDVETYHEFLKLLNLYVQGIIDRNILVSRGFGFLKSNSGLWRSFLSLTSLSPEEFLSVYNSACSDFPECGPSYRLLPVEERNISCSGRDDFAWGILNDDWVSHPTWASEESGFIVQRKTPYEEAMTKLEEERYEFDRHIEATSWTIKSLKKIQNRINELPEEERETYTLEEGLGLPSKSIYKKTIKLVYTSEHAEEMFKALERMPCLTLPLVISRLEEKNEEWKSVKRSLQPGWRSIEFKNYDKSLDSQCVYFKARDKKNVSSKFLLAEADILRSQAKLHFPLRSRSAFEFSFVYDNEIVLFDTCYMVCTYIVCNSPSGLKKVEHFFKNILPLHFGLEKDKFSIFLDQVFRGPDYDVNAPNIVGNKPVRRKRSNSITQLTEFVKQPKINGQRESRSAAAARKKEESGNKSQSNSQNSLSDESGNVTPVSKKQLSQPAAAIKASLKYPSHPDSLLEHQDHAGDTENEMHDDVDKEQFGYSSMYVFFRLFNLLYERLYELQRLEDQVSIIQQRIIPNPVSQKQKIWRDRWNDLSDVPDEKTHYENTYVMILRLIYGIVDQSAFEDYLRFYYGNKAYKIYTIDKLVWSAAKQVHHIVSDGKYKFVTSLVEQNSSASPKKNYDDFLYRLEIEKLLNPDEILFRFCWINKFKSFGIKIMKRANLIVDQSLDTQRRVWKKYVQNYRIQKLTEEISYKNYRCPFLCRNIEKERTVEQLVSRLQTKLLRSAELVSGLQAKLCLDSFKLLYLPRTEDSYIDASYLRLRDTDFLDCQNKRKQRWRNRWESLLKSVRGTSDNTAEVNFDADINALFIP

T2: Pst3 with C-terminal 3× Flag-tag (S. pombe, UniProt O74755 1-1154)
T2 construct: Pst3, Sin3 homolog of S. pombe, subunit of the SIN3L complex; PAH3, HID and HCR are resolved in the model; Endogenous protein; also called Pst3-Flag; Sin3 isoform Pst3; source: endogenous locus tagged, S. pombe; purified (ANTI-FLAG M2 resin, glycerol gradient); not shown: 3× Flag, C-terminal, kept
T2 sequence (looked up): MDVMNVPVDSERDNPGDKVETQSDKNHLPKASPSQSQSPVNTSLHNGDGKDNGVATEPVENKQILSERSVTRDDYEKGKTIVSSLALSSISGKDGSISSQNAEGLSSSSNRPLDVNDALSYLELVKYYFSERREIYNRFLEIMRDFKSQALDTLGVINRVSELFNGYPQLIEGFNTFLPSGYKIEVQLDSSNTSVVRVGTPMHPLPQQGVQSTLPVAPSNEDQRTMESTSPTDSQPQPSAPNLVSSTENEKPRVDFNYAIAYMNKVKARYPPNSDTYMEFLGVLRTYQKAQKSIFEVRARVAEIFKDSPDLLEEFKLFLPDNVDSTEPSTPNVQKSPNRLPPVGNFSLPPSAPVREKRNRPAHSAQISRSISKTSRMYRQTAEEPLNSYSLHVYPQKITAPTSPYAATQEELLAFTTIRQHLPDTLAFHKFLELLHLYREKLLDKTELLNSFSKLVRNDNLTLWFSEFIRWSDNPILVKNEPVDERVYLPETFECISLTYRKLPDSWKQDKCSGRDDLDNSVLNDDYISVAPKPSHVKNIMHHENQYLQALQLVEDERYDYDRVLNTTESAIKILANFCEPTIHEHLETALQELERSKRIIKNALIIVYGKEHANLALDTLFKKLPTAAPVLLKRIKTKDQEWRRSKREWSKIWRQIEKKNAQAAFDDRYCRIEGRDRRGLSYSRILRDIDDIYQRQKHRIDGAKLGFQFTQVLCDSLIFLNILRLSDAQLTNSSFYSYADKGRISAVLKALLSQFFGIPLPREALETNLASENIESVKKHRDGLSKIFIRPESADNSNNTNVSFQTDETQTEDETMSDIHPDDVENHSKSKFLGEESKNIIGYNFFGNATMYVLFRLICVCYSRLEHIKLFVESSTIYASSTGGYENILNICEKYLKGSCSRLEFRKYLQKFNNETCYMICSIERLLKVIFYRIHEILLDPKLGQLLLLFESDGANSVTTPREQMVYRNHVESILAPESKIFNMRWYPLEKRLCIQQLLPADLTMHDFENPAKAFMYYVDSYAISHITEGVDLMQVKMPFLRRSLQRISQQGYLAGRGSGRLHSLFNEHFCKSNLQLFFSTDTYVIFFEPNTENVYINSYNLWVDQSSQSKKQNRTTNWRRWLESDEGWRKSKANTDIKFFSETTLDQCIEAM

B1: WD40 domain-containing protein Prw1 (natural protein, S. pombe, UniProt O14021 1-431, looked up)
chain: MAVSAVPHPSKQAQASEEGINQEKCINEEYKIWKKNSPFLYDLIITRALEWPCMSLQWYPEQQIFAEHGYTEQKMFLGVRADVGKYLLAVASIQLPYLNQTVPPTTMEGASAGDESSLRVNISNLYSHPESVCSAKLMPQDDSCVATVGNYHNDVLVFDKESFESYSSASESPLKPKYRLTKHTQPCTSVCWNFLSKGTLVSGSQDATLSCWDLNAYNESDSASVLKVHISSHEKQVSDVRFHYKHQDLLASVSYDQYLHVHDIRRPDASTKPARSVHAHSGPIHSVAFNPHNDFILATCSTDKTIALWDLRNLNQRLHTLEGHEDIVTKISFSPHEEPILASTSADRRTLVWDLSRIGEDQPAEEAQDGPPELLFMHGGHTSCTIDMDWCPNYNWTMATAAEDNILQIWTPSRSIWGNEQLEEDATAYLS
notes: Prw1 of S. pombe, homolog of S. cerevisiae Ume1 and human RBBP4/7; N-terminal NEE box and C-terminal WD40 domain; two copies in SIN3L (Prw1, Prw1’), one in SIN3S; Endogenous protein; source: endogenous, S. pombe; co-purified with Pst3-3×Flag or Pst2-3×Flag (ANTI-FLAG M2 resin, glycerol gradient)
B2: Rxt3 (natural protein, S. pombe, UniProt O94707 1-351, looked up)
chain: MEEKTPENEQSKKTFDPKDSMKIEETSTNGSSQPSQPSNIKLSIGSILESSNDNGDPEYSENGMGNMNMNTLPMATSTPMSYTKQPSEAKYPNSVWERKGVSDQEENTSSVKRQKTLPTQSSGEEEAKYSHPGAPTATSADSISMESRPSNLSTSLSKTTSYPQFQVRQFVSPIISIDNSALEPFLNRYPASESLFPVTEYEYTPWLEFPLLYSSIGKFVRVTIDIKWLNAAINPRLCRREIWGTDVYTDDSDIATILAHCGCFSLLKPVRKIAVVDLYILPPLVHYKGTRKNQIESRSWSSRQDGISLKIKEVTWKPACASIFENSIHTLTLEERLQARLELSRSSTFKI
notes: Rxt3 of S. pombe, subunit of the Pst3 Lobe of the SIN3L complex; Endogenous protein; source: endogenous, S. pombe; co-purified with Pst3-3×Flag (ANTI-FLAG M2 resin, glycerol gradient)
B3: histone deacetylase Clr6 (enzyme, S. pombe, UniProt O59702 1-405, looked up)
chain: MGFGKKKVSYFYDEDVGNYHYGPQHPMKPHRVRMVHNLVVNYNLYEKLNVITPVRATRNDMTRCHTDEYIEFLWRVTPDTMEKFQPHQLKFNVGDDCPVFDGLYEFCSISAGGSIGAAQELNSGNAEIAINWAGGLHHAKKREASGFCYVNDIALAALELLKYHQRVLYIDIDVHHGDGVEEFFYTTDRVMTCSFHKFGEYFPGTGHIKDTGIGTGKNYAVNVPLRDGIDDESYESVFKPVISHIMQWFRPEAVILQCGTDSLAGDRLGCFNLSMKGHSMCVDFVKSFNLPMICVGGGGYTVRNVARVWTYETGLLAGEELDENLPYNDYLQYYGPDYKLNVLSNNMENHNTRQYLDSITSEIIENLRNLSFAPSVQMHKTPGDFTFENAEKQNIAKEEIMDERV
notes: Clr6, zinc-dependent class I histone deacetylase of S. pombe; two copies in SIN3L (Clr6, Clr6’), one in SIN3S; Endogenous protein; source: endogenous, S. pombe; co-purified with Pst3-3×Flag or Pst2-3×Flag (ANTI-FLAG M2 resin, glycerol gradient)

Tests used:
Conditions in all cases: both partners purified
[1] = target: T1, Pst2 with C-terminal 3× Flag-tag; test: cryo-EM structure; endogenous SIN3S complex purified from the Pst2-3×Flag S. pombe strain, cross-linked with 1 mM BS3; 20 mM HEPES pH 7.4, 50 mM NaCl, 2 mM DTT; 2.9 Å
[2] = target: T2, Pst3 with C-terminal 3× Flag-tag; test: cryo-EM structure; endogenous SIN3L complex purified from the Pst3-3×Flag S. pombe strain, cross-linked with 1 mM BS3; 20 mM HEPES pH 7.4, 50 mM NaCl, 2 mM DTT; 3.2 Å
[3] = target: T3, Pst1 (S. pombe, UniProt Q09750 1-1522); test: as above
T3 construct: Pst1, Sin3 homolog of S. pombe, endogenous subunit of the SIN3L complex; PAH3, HID and HCR are resolved in the model; Endogenous protein, untagged in the Pst3-Flag strain; only part of it is modelled in PDB 8I03; also called Sin3 isoform Pst1; Sin3 homolog Pst1; source: endogenous, S. pombe; co-purified with Pst3-3×Flag (ANTI-FLAG M2 resin, glycerol gradient)

[4] = target: B1; test: as above

T3 sequence (Q09750 whole entry, canonical isoform): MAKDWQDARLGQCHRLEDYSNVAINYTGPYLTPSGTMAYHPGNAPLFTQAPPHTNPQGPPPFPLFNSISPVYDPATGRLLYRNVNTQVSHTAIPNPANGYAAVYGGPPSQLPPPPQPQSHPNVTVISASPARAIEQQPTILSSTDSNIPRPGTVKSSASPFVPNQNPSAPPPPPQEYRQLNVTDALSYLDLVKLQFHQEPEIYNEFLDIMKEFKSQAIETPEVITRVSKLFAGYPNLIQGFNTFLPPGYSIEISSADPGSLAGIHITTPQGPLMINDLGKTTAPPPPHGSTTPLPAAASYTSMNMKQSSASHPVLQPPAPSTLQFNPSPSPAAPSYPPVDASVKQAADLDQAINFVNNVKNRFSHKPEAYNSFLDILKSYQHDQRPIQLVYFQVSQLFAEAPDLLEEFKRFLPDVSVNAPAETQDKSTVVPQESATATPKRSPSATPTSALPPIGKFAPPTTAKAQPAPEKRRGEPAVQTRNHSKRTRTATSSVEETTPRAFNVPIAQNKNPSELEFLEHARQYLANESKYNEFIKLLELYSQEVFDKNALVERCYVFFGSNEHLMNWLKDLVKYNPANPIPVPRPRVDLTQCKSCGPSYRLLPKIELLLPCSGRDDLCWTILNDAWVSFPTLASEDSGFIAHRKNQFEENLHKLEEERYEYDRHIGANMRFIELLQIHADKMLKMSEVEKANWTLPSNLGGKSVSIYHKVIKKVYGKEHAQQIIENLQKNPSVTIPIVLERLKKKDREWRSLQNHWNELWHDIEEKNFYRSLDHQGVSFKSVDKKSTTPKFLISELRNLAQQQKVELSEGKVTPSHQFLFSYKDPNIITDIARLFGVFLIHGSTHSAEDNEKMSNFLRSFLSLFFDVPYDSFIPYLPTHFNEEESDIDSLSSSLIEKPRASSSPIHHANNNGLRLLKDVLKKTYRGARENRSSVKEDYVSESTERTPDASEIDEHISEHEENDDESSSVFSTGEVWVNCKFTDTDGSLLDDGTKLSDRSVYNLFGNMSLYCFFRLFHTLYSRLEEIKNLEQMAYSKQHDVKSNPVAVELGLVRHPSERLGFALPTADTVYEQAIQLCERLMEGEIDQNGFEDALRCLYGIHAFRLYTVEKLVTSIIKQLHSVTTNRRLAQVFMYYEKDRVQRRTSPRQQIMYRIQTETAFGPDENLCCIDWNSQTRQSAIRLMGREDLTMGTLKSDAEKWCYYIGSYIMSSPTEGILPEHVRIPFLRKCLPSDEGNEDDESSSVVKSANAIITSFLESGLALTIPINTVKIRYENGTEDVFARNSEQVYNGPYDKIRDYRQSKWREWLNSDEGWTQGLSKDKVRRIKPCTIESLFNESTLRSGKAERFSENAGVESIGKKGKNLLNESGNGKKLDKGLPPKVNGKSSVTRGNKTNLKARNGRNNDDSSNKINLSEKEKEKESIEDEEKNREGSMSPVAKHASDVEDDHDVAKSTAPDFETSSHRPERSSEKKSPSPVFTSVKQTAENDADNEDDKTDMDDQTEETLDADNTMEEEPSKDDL

binding result [1] | binding result [2] | binding result [3] | binding result [4] | Binder
binds | binds | binds |  | B1
 | binds |  | binds | B2
binds | binds | binds |  | B3
